Series [1] addresses T1, enzyme SEQ ID NO: 6 (MDP decarboxylase) (Picrophilus torridus, UniProt Q6KZB1).
T1 construct: 6-Histidine tag (N); made in house; host or cells: E. coli BL21(DE3)
T1 sequence (Q6KZB1 1-324): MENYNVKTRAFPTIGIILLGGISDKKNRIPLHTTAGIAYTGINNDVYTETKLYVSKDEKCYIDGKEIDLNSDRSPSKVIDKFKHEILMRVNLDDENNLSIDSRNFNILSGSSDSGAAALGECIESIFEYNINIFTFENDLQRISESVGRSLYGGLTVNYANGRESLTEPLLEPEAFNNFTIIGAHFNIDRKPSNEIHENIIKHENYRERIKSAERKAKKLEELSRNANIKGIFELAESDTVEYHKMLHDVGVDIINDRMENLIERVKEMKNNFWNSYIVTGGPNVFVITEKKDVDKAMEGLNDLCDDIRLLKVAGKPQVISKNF
Description: Effect of ATP co-substrate and Mg2+ cofactor on IBN production by enzyme SEQ ID NO: 6. To be noted: 1 mg/ml enzyme, 72 h at 30° C. The class given is biochemical. As to the method:
Effect of ATP Co-Substrate
(§1) 200 mM HIV (to be specified)
(§2) Incubation 72 h at 30° C.
Other molecules, and in particular those containing a phosphoanhydride bond, could also be efficient co-substrates for the enzyme.
Other ions, and in particular other divalent ions, could be used as cofactor in place of or in addition to Mg^2+ ions.

In series [2] the target is T2, MDP decarboxylase of Saccharomyces cerevisiae (Saccharomyces cerevisiae, UniProt P32377).
T2 construct: made in house; host or cells: E. coli BL21
T2 sequence (P32377 1-396): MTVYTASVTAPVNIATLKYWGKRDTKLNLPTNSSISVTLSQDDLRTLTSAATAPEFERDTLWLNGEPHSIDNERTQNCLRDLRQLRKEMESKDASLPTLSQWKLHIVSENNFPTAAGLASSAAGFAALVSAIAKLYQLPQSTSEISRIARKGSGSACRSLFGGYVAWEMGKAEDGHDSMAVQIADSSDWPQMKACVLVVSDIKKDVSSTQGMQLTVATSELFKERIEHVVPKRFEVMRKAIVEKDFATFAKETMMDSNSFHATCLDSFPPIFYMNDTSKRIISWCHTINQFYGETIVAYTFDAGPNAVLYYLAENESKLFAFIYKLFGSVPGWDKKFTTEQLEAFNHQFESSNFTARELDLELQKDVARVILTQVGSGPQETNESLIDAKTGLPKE
Put plainly: Activity of protein extract (S. cerevisiae MDP decarboxylase) towards 3-hydroxy-3-methylbutyrate, with or without cofactor. The class given is biochemical. As to the method:
The gene encoding MDP decarboxylase of Saccharomyces cerevisiae is synthesized from overlapping oligonucleotides and cloned in a pET plasmid (Novagen) allowing expression in bacteria. Said plasmid is then transformed by electroporation into bacterial strain BL21 (Invitrogen). The bacteria are streaked on a Petri dish containing ampicillin and incubated at 37° C. The next day, a bacterial colony is randomly selected and used to inoculate 50 ml of LB medium containing ampicillin. The culture is incubated for 24 h while shaking, after which the culture is centrifuged, the bacteria lysed by sonication, and a total protein extract prepared. An aliquot of the extract is loaded on an electrophoresis gel together with a protein extract from the same strain which has not been transformed, and with molecular weight markers. […]
Vials are sealed with a septum and crimped. […] After incubation, a gas syringe is used to collect the gas present in each vial, and the CO2 concentration in the samples is measured by gas chromatography. […] The presence of isobutylene in the gas sample from vial 6 is then measured by gas chromatography with infrared or flame ionization detection. […]
As in the previous example, isobutylene formation is measured by gas chromatography with infrared or flame ionization detection.

Series [3] addresses T1, enzyme SEQ ID NO: 6 (MDP decarboxylase). Put plainly: Substrate range test, Km of enzyme SEQ ID NO: 6 for HIV. Type of series: biochemical. The conditions noted are these: previously described conditions, incubation at 50° C., read-out: Km of the enzyme / affinity for HIV. Here is the method:
FIG. 13: IBN production according to concentration of HIV substrate.
A substrate range was tested in the previously described conditions, with incubation at 50° C. The Km of the enzyme is approximately 40 mM HIV.

Series [4] can be described thus: Conversion of HIV to isobutylene (IBN) by purified enzyme SEQ ID NO: 6, GC measurement. Type of series: biochemical, Picrophilus torridus. As to the method:
The recombinant enzyme was purified as described in example 4.
The activity of the isolated enzyme was confirmed. The reaction was carried out in the following conditions:
After 72 h incubation at 30° C., the signal was measured by GC/MS. In the presence of the enzyme, IBN production was increased here by approximately 2.3-fold over background noise. The background noise observed here is in agreement with the organic chemistry literature, showing that in aqueous solution and at a temperature of around 100° C., 3-hydroxyisovaleric acid slowly decarboxylates to tert-butanol, which is partially dehydrated to isobutylene, following an equilibrium favorable to the formation of tert-butanol (Pressman and Luca, J. Am. Chem. Soc. 1940).
Enzymatic Activity According to Temperature
as §1
Incubation 72 h at different temperatures.
as §2
Optimal conditions were obtained with a pH of 5.5 in 100 mM citrate.
Optimization of Reaction Conditions
Optimum reaction conditions were sought, and the following conditions were retained:
Incubation 48 h at 50° C.

Series [5] can be described thus: Screening of a library of 63 MDP decarboxylase family enzymes for activity on HIV. The class given is biochemical. To be noted: 200 mM HIV, 10 mM ATP, pH 5.5 or 7.0, 37° C. for 72 h, GC/MS. An excerpt: A library of 63 genes encoding enzymes from the MDP decarboxylase family was obtained and tested for activity on HIV as substrate.
The genes encoding the mevalonate diphosphate (MDP) decarboxylase family EC 4.1.1.33 were cloned in the pET 25b vector (Novagen) in the case of eukaryotic genes and pET 22b (Novagen) for genes of prokaryotic origin, with a 6-Histidine tag at the N-terminal end immediately after the methionine initiation codon. Competent E. coli BL21(DE3) cells (Novagen) were transformed with these vectors by heat shock. The cells were grown with shaking (160 rpm) at 30° C. in TB medium containing 0.5 M sorbitol, 5 mM betain, 100 μg/ml ampicillin until reaching an OD at 600 nm comprised between 0.8 and 1. Isopropyl-B-D-thiogalactopyranoside (IPTG) was then added to a final concentration of 1 mM and protein expression was continued at 20° C. overnight (approximately 16 h). The cells were collected by centrifugation at 4° C., 10,000 rpm for 20 min and the pellets were frozen at −80° C. […]
The clarified bacterial lysates were loaded on a PROTINO-1000 Ni-IDA column (Macherey-Nagel) allowing adsorption of 6-His tag proteins. […] Protein was quantified by the Bradford method. […]
The gas present above the reactions was collected with a syringe equipped with a no-return mechanism. The gas sample was analyzed by gas chromatography (GC) coupled with mass spectrometry (MS). […]

Regarding `[Mg+2]` [Mg^2+], the “enzyme activity (IBN production) in presence and absence of Mg2+” value in series [1] (0 or 5 mM MgCl2, 100 mM citrate pH 5.5, 10 mM ATP, 200 mM HIV) is on record as “improved”.
`CCOP(=O)(O)OP(=O)(O)O` [ethyl diphosphate, reference compound]: the “amount of isobutylene produced over time with cofactor” value in series [2] (10 μl of 10 mg/l ethyl diphosphate added to 3-hydroxy-3-methylbutyrate reaction) is on record as “markedly higher”.
Consider `Nc1ncnc2c1ncn2[C@@H]1O[C@H](COP(=O)(O)OP(=O)(O)OP(=O)(O)O)[C@@H](O)[C@H]1O` [ATP], for which the “enzyme activity (IBN production) in presence and absence of ATP” value in series [1] (0 or 10 mM ATP, 100 mM citrate pH 5.5, 200 mM HIV) was “only observed in the presence”.
Take `CC(C)(O)CC(=O)O` [HIV, 3-hydroxy-3-methylbutyrate]: the Km in series [3] is around 40 mM. In addition, the “reaction of the enzyme preparation (CO2 detected by gas chromatography)” value in series [2] (vial 6, 5 mM ATP, 10 mM MgCl2, 37° C., 4 hours to 3 days) is “significant reaction”.

B1: Candidate 10: purified decarboxylase enzyme of SEQ ID NO: 6 from Picrophilus torridus, Q6KZB1, N-terminal His tag (protein)
chain: T1 sequence (Q6KZB1 1-324)
modifications: N-terminal His tag
Take B1: the “IBN production in presence of enzyme over background noise” value in series [4] (100 mM Tris-HCl, 10 mM MgCl2, 10 mM ATP, 20 mM KCl, pH 6.0, 3 mg/ml enzyme, 72 h at 30° C., GC/MS) is given as “approximately 2.3 fold”. In series [4] (100 mM buffer, 50 mM KCl, 10 mM ATP, 200 mM HIV, 1 mg/ml enzyme, 72 h at different temperatures), the “temperature optimum of enzymatic activity” value was “approximately 50 °C”. Moreover, in series [4] (100 mM citrate, 50 mM KCl, 10 mM ATP, 200 mM HIV, 1 mg/ml enzyme, 72 h at 30° C.), the “optimal pH of enzymatic activity” value was 5.5. Also, the “signal-to-noise ratio (measured in the absence of enzyme) for the conversion yield” value in series [4] (in some conditions, example 5) was “approximately 100 fold”. Moreover, the “ratio of the signal over background noise” value in series [4] (optimized: 100 mM citrate, 50 mM KCl, 40 mM ATP, 200 mM HIV, 1 mg/ml enzyme, 48 h at 50° C., GC-FID) was “approximately 100”. Further, the “level of isobutylene (IBN) production in library screening” value in series [5] is “highest levels”.

(Values after patent US9909146B2, “Production of alkenes by enzymatic decarboxylation of 3-hydroxyalkanoic acids” (priority 2008, dated 2018).)
